EC50 data for nine molecules are collected here from patent US20210061907A1.

The target in assay [1] is CD19-ECD Fc fusion protein (human) (UniProt P15391). Kind of assay: ELISA, plates coated with CD19-ECD Fc, dose series of purified kappa fusion antibody fragment, OD450, GraphPad Prism.
In assay [2] the target is CD19 on the CD19-positive RaJi cell line (UniProt P15391). Kind of assay: flow cytometry on the CD19-positive RaJi cell line, dose series, anti-human IgG-FITC, GraphPad Prism.

B1: H10 affinity-matured antibody fragment, kappa light chain fusion protein (scFv, V domains shown)
VH: EVQLLESGGGLVQPGGSLRLSCAASGFTFSDYYMSWVRQAPGKGLEWVSGIYYDGTNVYYADSVKGRFTISRDNSKNTLYLQMNSLRAEDTAVYYCAKGPLFCNDRTCSYYYAMDVWGQGTLVTVSS
VL: QSVLTQPPSASGTPGQRVTISCLGGYSNIGSNAVYWYQQLPGTAPKLLIYDDNHRPSGVPDRFSGSKSGTSASLAISGLRSEDEADYYCGTWDYSLSGYVLGGGTKLTVL
For the molecule B1, the EC50 in assay [1] is 3.31 nM.

B2: E12 affinity-matured antibody fragment, kappa light chain fusion protein (scFv, V domains shown)
VH: EVQLLESGGGLVQPGGSLRLSCAASGFTFSDYYMSWVRQAPGKGLEWVSGIYYDSFVPYYADSVKGRFTISRDNSKNTLYLQMNSLRAEDTAVYYCAKGPLFCNDRTCSYYYAMDVWGQGTLVTVSS
VL: QSVLTQPPSASGTPGQRVTISCAGSASNIGSNAVYWYQQLPGTAPKLLIYDDNHRPSGVPDRFSGSKSGTSASLAISGLRSEDEADYYCGTWDYSLSGYVLGGGTKLTVL
The molecule B2 came in with an EC50 in assay [1] of 2.56 nM.

B3: T3H9 affinity-matured antibody fragment, kappa light chain fusion protein (scFv, V domains shown)
VH: EVQLLESGGGLVQPGGSLRLSCAASGFTFSDYYMSWVRQAPGKGLEWVSGIYYDASAEYYADSVKGRFTISRDNSKNTLYLQMNSLRAEDTAVYYCAKGPLFCNDRTCSYYYAMDVWGQGTLVTVSS
VL: QSVLTQPPSASGTPGQRVTISCSGMLSNIGSNAVYWYQQLPGTAPKLLIYDDNHRPSGVPDRFSGSKSGTSASLAISGLRSEDEADYYCGTWDYSLSGYVLGGGTKLTVL
For B3, in assay [1], the EC50 stood at 2.32 nM.

B4: C2 affinity-matured antibody fragment, kappa light chain fusion protein (scFv, V domains shown)
VH: EVQLLESGGGLVQPGGSLRLSCAASGFTFSDYYMSWVRQAPGKGLEWVSGIYYDGTNQYYADSVKGRFTISRDNSKNTLYLQMNSLRAEDTAVYYCAKGPLFCNDRTCSYYYAMDVWGQGTLVTVSS
VL: QSVLTQPPSASGTPGQRVTISCTGGLSNIGSNAVYWYQQLPGTAPKLLIYDDNHRPSGVPDRFSGSKSGTSASLAISGLRSEDEADYYCGTWDYSLSGYVLGGGTKLTVL
Consider B4, for which the EC50 turned out to be 5.81 nM in assay [1] and 61.2 nM in assay [2].

B5: D10 affinity-matured antibody fragment, kappa light chain fusion protein (scFv, V domains shown)
VH: EVQLLESGGGLVQPGGSLRLSCAASGFTFSDYYMSWVRQAPGKGLEWVSGIYYDGSAVYYADSVKGRFTISRDNSKNTLYLQMNSLRAEDTAVYYCAKGPLFCNDRTCSYYYAMDVWGQGTLVTVSS
VL: QSVLTQPPSASGTPGQRVTISCWGDYSNIGSNAVYWYQQLPGTAPKLLIYDDNHRPSGVPDRFSGSKSGTSASLAISGLRSEDEADYYCGTWDYSLSGYVLGGGTKLTVL
Molecule B5 had an EC50 in assay [1] of 2.48 nM.

B6: D7 affinity-matured antibody fragment, kappa light chain fusion protein (scFv, V domains shown)
VH: EVQLLESGGGLVQPGGSLRLSCAASGFTFSDYYMSWVRQAPGKGLEWVSGIYYDGTAFYYADSVKGRFTISRDNSKNTLYLQMNSLRAEDTAVYYCAKGPLFCNDRTCSYYYAMDVWGQGTLVTVSS
VL: QSVLTQPPSASGTPGQRVTISCEGQPSNIGSNAVYWYQQLPGTAPKLLIYDDNHRPSGVPDRFSGSKSGTSASLAISGLRSEDEADYYCGTWDYSLSGYVLGGGTKLTVL
Molecule B6 displayed an EC50 in assay [1] of 3.2 nM.

B7: 2F1 affinity-matured antibody fragment, kappa light chain fusion protein (scFv, V domains shown)
VH: EVQLLESGGGLVQPGGSLRLSCAASGFTFSDYYMSWVRQAPGKGLEWVSGIYYDGSSQGWSSSVKGRFTISRDNSKNTLYLQMNSLRAEDTAVYYCAKGPLFCNDRTCSYYYAMDVWGQGTLVTVSS
VL: QSVLTQPPSASGTPGQRVTISCYGQPSNIGSNAVYWYQQLPGTAPKLLIYDDNHRPSGVPDRFSGSKSGTSASLAISGLRSEDEADYYCGTWDYSLSGYVLGGGTKLTVL
Consider B7, for which the EC50 in assay [1] was determined as 1.6 nM; in assay [2], 10.5 nM.

B8: E3 affinity-matured antibody fragment, kappa light chain fusion protein (scFv, V domains shown)
VH: EVQLLESGGGLVQPGGSLRLSCAASGFTFSDYYMSWVRQAPGKGLEWVSGIYYDGTAMYYADSVKGRFTISRDNSKNTLYLQMNSLRAEDTAVYYCAKGPLFCNDRTCSYYYAMDVWGQGTLVTVSS
VL: QSVLTQPPSASGTPGQRVTISCSGGYSNIGSNAVYWYQQLPGTAPKLLIYDDNHRPSGVPDRFSGSKSGTSASLAISGLRSEDEADYYCGTWDYSLSGYVLGGGTKLTVL
On to B8, for which the EC50 amounted to 1.87 nM in assay [1] and 26.1 nM in assay [2].

B9: T3C1 affinity-matured antibody fragment, kappa light chain fusion protein (scFv, V domains shown)
VH: EVQLLESGGGLVQPGGSLRLSCAASGFTFSDYYMSWVRQAPGKGLEWVSGIYYDGSASYYADSVKGRFTISRDNSKNTLYLQMNSLRAEDTAVYYCAKGPLFCNDRTCSYYYAMDVWGQGTLVTVSS
VL: QSVLTQPPSASGTPGQRVTISCSGGPSNIGSNAVYWYQQLPGTAPKLLIYDDNHRPSGVPDRFSGSKSGTSASLAISGLRSEDEADYYCGTWDYSLSGYVLGGGTKLTVL
B9: the EC50 in assay [1] stood at 2.4 nM.
